Reference: publication PMC11198818, “Positive charges promote the recognition of proteins by the chaperone SlyD from Escherichia coli” (PLOS ONE, 2024)

Tests used:
Assay in all cases: ITC; VP-ITC (MicroCal), 30°C, 10 mM potassium phosphate buffer pH 7.6 or 7.8; SlyD or its variant 30 uM in the calorimetric cell, HiPIP precursor (RR-HiPIP) injected: 100 uM, 2x 22 injections of 10 uL (Fig 4); 200 uM, 23 injections of 10 uL (Fig 3)
Conditions in all cases: both partners purified
[1] = molecular target: T1, SlyD F96A, C-terminally hexahistidine-tagged (E. coli, UniProt P0A9K9 1-196, F96A)
T1 construct: FKBP-type peptidyl-prolyl cis-trans isomerase SlyD, E. coli; the tag is fused to the C-terminal domain; not shown: His6, C-terminal, kept
T1 sequence: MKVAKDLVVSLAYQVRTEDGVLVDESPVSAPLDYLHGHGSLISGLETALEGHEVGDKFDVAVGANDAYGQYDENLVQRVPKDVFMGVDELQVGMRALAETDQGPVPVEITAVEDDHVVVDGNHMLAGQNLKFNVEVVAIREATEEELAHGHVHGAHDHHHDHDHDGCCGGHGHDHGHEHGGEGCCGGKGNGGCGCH

[2] = molecular target: T2, SlyD F96G, C-terminally hexahistidine-tagged (E. coli, UniProt P0A9K9 1-196, F96G)
T2 construct: FKBP-type peptidyl-prolyl cis-trans isomerase SlyD, E. coli; the tag is fused to the C-terminal domain; not shown: His6, C-terminal, kept
T2 sequence: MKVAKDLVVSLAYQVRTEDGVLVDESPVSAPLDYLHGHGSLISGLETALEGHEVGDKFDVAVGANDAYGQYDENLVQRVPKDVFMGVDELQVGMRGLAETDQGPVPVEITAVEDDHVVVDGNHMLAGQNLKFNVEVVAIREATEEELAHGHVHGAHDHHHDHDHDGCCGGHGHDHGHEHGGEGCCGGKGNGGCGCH

[3] = molecular target: T3, SlyD E113A, C-terminally hexahistidine-tagged (E. coli, UniProt P0A9K9 1-196, E113A)
T3 construct: FKBP-type peptidyl-prolyl cis-trans isomerase SlyD, E. coli; the tag is fused to the C-terminal domain; not shown: His6, C-terminal, kept
T3 sequence: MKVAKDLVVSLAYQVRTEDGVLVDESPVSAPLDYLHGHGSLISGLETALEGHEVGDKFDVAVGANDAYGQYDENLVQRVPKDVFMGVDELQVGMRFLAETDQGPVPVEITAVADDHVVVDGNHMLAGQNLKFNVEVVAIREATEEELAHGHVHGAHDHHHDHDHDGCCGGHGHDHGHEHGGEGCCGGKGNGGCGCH

[4] = molecular target: T4, SlyD F96N, C-terminally hexahistidine-tagged (E. coli, UniProt P0A9K9 1-196, F96N)
T4 construct: FKBP-type peptidyl-prolyl cis-trans isomerase SlyD, E. coli; the tag is fused to the C-terminal domain; not shown: His6, C-terminal, kept
T4 sequence: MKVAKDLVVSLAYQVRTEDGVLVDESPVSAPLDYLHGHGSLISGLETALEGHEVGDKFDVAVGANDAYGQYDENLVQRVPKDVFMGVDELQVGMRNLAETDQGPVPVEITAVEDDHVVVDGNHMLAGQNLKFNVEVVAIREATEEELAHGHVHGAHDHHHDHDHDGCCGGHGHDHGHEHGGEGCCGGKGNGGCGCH

[5] = molecular target: T5, SlyD E73A, C-terminally hexahistidine-tagged (E. coli, UniProt P0A9K9 1-196, E73A)
T5 construct: FKBP-type peptidyl-prolyl cis-trans isomerase SlyD, E. coli; the tag is fused to the C-terminal domain; not shown: His6, C-terminal, kept
T5 sequence: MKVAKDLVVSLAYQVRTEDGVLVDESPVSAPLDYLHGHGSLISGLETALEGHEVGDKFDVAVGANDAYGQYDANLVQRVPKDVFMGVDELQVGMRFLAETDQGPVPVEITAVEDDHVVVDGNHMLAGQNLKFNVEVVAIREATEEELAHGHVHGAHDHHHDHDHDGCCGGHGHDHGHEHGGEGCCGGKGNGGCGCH

[6] = molecular target: T6, SlyD from Escherichia coli, C-terminally hexahistidine-tagged, wild type (E. coli, UniProt P0A9K9 1-196)
T6 construct: FKBP-type peptidyl-prolyl cis-trans isomerase SlyD, E. coli; the tag is fused to the C-terminal domain; also called WT; wt; not shown: His6, C-terminal, kept
T6 sequence: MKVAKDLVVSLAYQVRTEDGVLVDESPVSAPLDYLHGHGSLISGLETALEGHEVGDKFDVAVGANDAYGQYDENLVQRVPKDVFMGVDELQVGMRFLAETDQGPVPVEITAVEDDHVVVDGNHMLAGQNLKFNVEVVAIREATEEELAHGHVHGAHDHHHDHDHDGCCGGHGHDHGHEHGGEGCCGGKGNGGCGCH

B1: HiPIP precursor (RR-HiPIP) from Allochromatium vinosum (natural protein)
chain: MSDKPISKSRRDAVKVMLGTAAAIPMINLVGFGTARASAPANAVAADDATAIALKYNQDATKSERVAAARPGLPPEEQHCANCQFMQADAAGATDEWKGCQLFPGKLINVNGWCASWTLKAG
modifications: HiPIP precursor; fully folded, [4Fe-4S] cluster presumed; signal peptide retained
Kd [1]: 4.88 ± 0.54 µM | stoichiometry N [1]: 0.66 ± 0.013 | Kd [2]: 5.65 ± 0.3 µM | stoichiometry N [2]: 0.575 ± 0.007 | Kd [3]: 0.49 ± 0.07 µM | stoichiometry N [3]: 0.616 ± 0.008 | Kd [4]: 8.85 ± 2.78 µM | stoichiometry N [4]: 0.628 ± 0.036 | Kd [5]: 0.32 ± 0.02 µM | stoichiometry N [5]: 0.616 ± 0.003 | stoichiometry N [6]: 0.71 ± 0.002
